≈ marks a conversion by molar mass, not a printed value.
What was measured:
[1] = target: homoserine transsuccinylase enzyme MetA (Escherichia coli, UniProt P07623); conditions: in words; cited from earlier work
E. coli = conditions: growth rate of E. coli; cited from earlier work
[2] = tested on: homoserine transsuccinylase; assay: Homoserine transsuccinylase activity in vitro in crude extracts, succinylhomoserine quantified by GC-MS, with or without methionine and S-adenosylmethionine; conditions: for MetA activity of clones in pTRC99A: alleles cloned in pTRC99A with an alanine between amino acid 1M and 2P
Experimental: The activity of homoserine transsuccinylase was determined in vitro E. coli strains carrying either wild-type or mutant-enzymes were cultured in rich medium with 2.5 g/l glucose and harvested at late log phase. Cells were resuspended in cold potassium phosphate buffer and sonicated on ice (Branson sonifier, 70W). After centrifugation, proteins contained in the supernatants were quantified (Bradford, 1976).
Ten μl of the extracts were incubated for 30 minutes at 25° C. with 30 mM homoserine and 4 mM succinyl-CoA. Methionine and/or S-adenosylmethionine were added as indicated. The succinylhomoserine produced by homoserine transsuccinylase enzymes was quantified by GC-MS after derivatization with tert-butyldimethylsilyltrifluoroacetamide (TBDMSTFA). L-Serine[1-13C] was included as an internal standard.

[3] = tested on: S-adenosylmethionine synthetase; assay: S-adenosylmethionine synthetase (MAT) activity in vitro in crude extracts, FIA-MS/MS; assay type: biochemical, E. coli; conditions: 10 mM methionine, 10 mM ATP, 37° C., 30 minutes
[4] = Methionine 0 mM, S-adenosylmethionine 0 mM, rich medium extracts
[5] = Methionine 0 mM, S-adenosylmethionine 0.1 mM
[6] = Methionine 0 mM, S-adenosylmethionine 1 mM
[7] = Methionine 10 mM, S-adenosylmethionine 0 mM
[8] = Methionine 10 mM, S-adenosylmethionine 0.1 mM
[9] = Methionine 10 mM, S-adenosylmethionine 1 mM

Sequence of homoserine transsuccinylase enzyme MetA (P07623 whole entry): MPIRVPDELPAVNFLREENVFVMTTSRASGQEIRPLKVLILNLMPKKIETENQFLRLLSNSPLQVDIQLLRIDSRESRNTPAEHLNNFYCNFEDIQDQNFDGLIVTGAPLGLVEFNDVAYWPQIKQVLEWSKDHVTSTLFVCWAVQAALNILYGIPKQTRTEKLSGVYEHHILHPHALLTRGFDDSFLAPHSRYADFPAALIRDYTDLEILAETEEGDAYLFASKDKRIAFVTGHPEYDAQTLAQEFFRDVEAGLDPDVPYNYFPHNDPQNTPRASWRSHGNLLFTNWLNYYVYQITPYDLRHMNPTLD

Molecule: CSCC[C@](C)(N)C(=O)O [α-methylmethionine]
- inhibition of homoserine transsuccinylase enzyme MetA [1]: potent inhibitor
- minimal concentration for a maximal inhibition (E. coli): 5 µg/mL
- minimal inhibitory concentration (E. coli): 1 µg/mL (≈ 6.13 µM)

B1: metA: wild-type E. coli homoserine transsuccinylase (metA gene, strain MG1655) (protein, UniProt P07623 2-309, looked up)
Homoserine …: PIRVPDELPAVNFLREENVFVMTTSRASGQEIRPLKVLILNLMPKKIETENQFLRLLSNSPLQVDIQLLRIDSRESRNTPAEHLNNFYCNFEDIQDQNFDGLIVTGAPLGLVEFNDVAYWPQIKQVLEWSKDHVTSTLFVCWAVQAALNILYGIPKQTRTEKLSGVYEHHILHPHALLTRGFDDSFLAPHSRYADFPAALIRDYTDLEILAETEEGDAYLFASKDKRIAFVTGHPEYDAQTLAQEFFRDVEAGLDPDVPYNYFPHNDPQNTPRASWRSHGNLLFTNWLNYYVYQITPYDLRHMNPTLD
- Specific activity [2, 4]: 36.7 mUI/mg proteins
- Specific activity [2, 5]: 27.9 mUI/mg proteins
- Specific activity [2, 6]: 4.7 mUI/mg proteins
- Specific activity [2, 7]: 0.4 mUI/mg proteins
- Specific activity [2, 8]: 0.2 mUI/mg proteins
- Specific activity [2, 9]: 0.1 mUI/mg proteins
- MetA activity of clones in pTRC99A [2]: vary low

B2: metA*11: mutant homoserine transsuccinylase allele, CAG exchanged for GAG, Q replaced by E (Q64E) (protein, UniProt P07623 2-309, looked up, variant Q64E)
Homoserine …: PIRVPDELPAVNFLREENVFVMTTSRASGQEIRPLKVLILNLMPKKIETENQFLRLLSNSPLEVDIQLLRIDSRESRNTPAEHLNNFYCNFEDIQDQNFDGLIVTGAPLGLVEFNDVAYWPQIKQVLEWSKDHVTSTLFVCWAVQAALNILYGIPKQTRTEKLSGVYEHHILHPHALLTRGFDDSFLAPHSRYADFPAALIRDYTDLEILAETEEGDAYLFASKDKRIAFVTGHPEYDAQTLAQEFFRDVEAGLDPDVPYNYFPHNDPQNTPRASWRSHGNLLFTNWLNYYVYQITPYDLRHMNPTLD
- Specific activity [2, 4]: 19.2 mUI/mg proteins
- Specific activity [2, 5]: 21.7 mUI/mg proteins
- Specific activity [2, 6]: 18.5 mUI/mg proteins
- Specific activity [2, 7]: 18.7 mUI/mg proteins
- Specific activity [2, 8]: 16.9 mUI/mg proteins
- Specific activity [2, 9]: 2.7 mUI/mg proteins
- MetA activity of clones in pTRC99A [2]: vary low

B3: MetK* T227I (protein, UniProt P0A817 2-384, looked up, variant T227I)
S-adenosylmethionine synthase: AKHLFTSESVSEGHPDKIADQISDAVLDAILEQDPKARVACETYVKTGMVLVGGEITTSAWVDIEEITRNTVREIGYVHSDMGFDANSCAVLSAIGKQSPDINQGVDRADPLEQGAGDQGLMFGYATNETDVLMPAPITYAHRLVQRQAEVRKNGTLPWLRPDAKSQVTFQYDDGKIVGIDAVVLSTQHSEEIDQKSLQEAVMEEIIKPILPAEWLTSATKFFINPIGRFVIGGPMGDCGLTGRKIIVDTYGGMARHGGGAFSGKDPSKVDRSAAYAARYVAKNIVAAGLADRCEIQVSYAIGVAEPTSIMVETFGTEKVPSEQLTLLVREFFDLRPYGLIQMLDLLHPIYKETAAYGHFGREHFPWEKTDKAQLLRDAAGLK
- MAT (S-adenosylmethionine synthetase activity) [3]: 4.9 mUI/mg prot

B4: MetK* G115S (protein, UniProt P0A817 2-384, looked up, variant G115S)
S-adenosylmethionine synthase: AKHLFTSESVSEGHPDKIADQISDAVLDAILEQDPKARVACETYVKTGMVLVGGEITTSAWVDIEEITRNTVREIGYVHSDMGFDANSCAVLSAIGKQSPDINQGVDRADPLEQSAGDQGLMFGYATNETDVLMPAPITYAHRLVQRQAEVRKNGTLPWLRPDAKSQVTFQYDDGKIVGIDAVVLSTQHSEEIDQKSLQEAVMEEIIKPILPAEWLTSATKFFINPTGRFVIGGPMGDCGLTGRKIIVDTYGGMARHGGGAFSGKDPSKVDRSAAYAARYVAKNIVAAGLADRCEIQVSYAIGVAEPTSIMVETFGTEKVPSEQLTLLVREFFDLRPYGLIQMLDLLHPIYKETAAYGHFGREHFPWEKTDKAQLLRDAAGLK
- MAT (S-adenosylmethionine synthetase activity) [3]: 0.4 mUI/mg prot

B5: MetK* G105S (protein, UniProt P0A817 2-384, looked up, variant G105S)
S-adenosylmethionine synthase: AKHLFTSESVSEGHPDKIADQISDAVLDAILEQDPKARVACETYVKTGMVLVGGEITTSAWVDIEEITRNTVREIGYVHSDMGFDANSCAVLSAIGKQSPDINQSVDRADPLEQGAGDQGLMFGYATNETDVLMPAPITYAHRLVQRQAEVRKNGTLPWLRPDAKSQVTFQYDDGKIVGIDAVVLSTQHSEEIDQKSLQEAVMEEIIKPILPAEWLTSATKFFINPTGRFVIGGPMGDCGLTGRKIIVDTYGGMARHGGGAFSGKDPSKVDRSAAYAARYVAKNIVAAGLADRCEIQVSYAIGVAEPTSIMVETFGTEKVPSEQLTLLVREFFDLRPYGLIQMLDLLHPIYKETAAYGHFGREHFPWEKTDKAQLLRDAAGLK
- MAT (S-adenosylmethionine synthetase activity) [3]: 2.8 mUI/mg prot

B6: MetK* H143T (protein, UniProt P0A817 2-384, looked up, variant H143T)
S-adenosylmethionine synthase: AKHLFTSESVSEGHPDKIADQISDAVLDAILEQDPKARVACETYVKTGMVLVGGEITTSAWVDIEEITRNTVREIGYVHSDMGFDANSCAVLSAIGKQSPDINQGVDRADPLEQGAGDQGLMFGYATNETDVLMPAPITYATRLVQRQAEVRKNGTLPWLRPDAKSQVTFQYDDGKIVGIDAVVLSTQHSEEIDQKSLQEAVMEEIIKPILPAEWLTSATKFFINPTGRFVIGGPMGDCGLTGRKIIVDTYGGMARHGGGAFSGKDPSKVDRSAAYAARYVAKNIVAAGLADRCEIQVSYAIGVAEPTSIMVETFGTEKVPSEQLTLLVREFFDLRPYGLIQMLDLLHPIYKETAAYGHFGREHFPWEKTDKAQLLRDAAGLK
- MAT (S-adenosylmethionine synthetase activity) [3]: 2.5 mUI/mg prot

B7: MetK* R161C + P235S (protein, UniProt P0A817 2-384, looked up, variant R161C P235S)
S-adenosylmethionine synthase: AKHLFTSESVSEGHPDKIADQISDAVLDAILEQDPKARVACETYVKTGMVLVGGEITTSAWVDIEEITRNTVREIGYVHSDMGFDANSCAVLSAIGKQSPDINQGVDRADPLEQGAGDQGLMFGYATNETDVLMPAPITYAHRLVQRQAEVRKNGTLPWLCPDAKSQVTFQYDDGKIVGIDAVVLSTQHSEEIDQKSLQEAVMEEIIKPILPAEWLTSATKFFINPTGRFVIGGSMGDCGLTGRKIIVDTYGGMARHGGGAFSGKDPSKVDRSAAYAARYVAKNIVAAGLADRCEIQVSYAIGVAEPTSIMVETFGTEKVPSEQLTLLVREFFDLRPYGLIQMLDLLHPIYKETAAYGHFGREHFPWEKTDKAQLLRDAAGLK
- MAT (S-adenosylmethionine synthetase activity) [3]: 0.7 mUI/mg prot

B8: MetK* S59N + G105S (protein, UniProt P0A817 2-384, looked up, variant S59N G105S)
S-adenosylmethionine synthase: AKHLFTSESVSEGHPDKIADQISDAVLDAILEQDPKARVACETYVKTGMVLVGGEITTNAWVDIEEITRNTVREIGYVHSDMGFDANSCAVLSAIGKQSPDINQSVDRADPLEQGAGDQGLMFGYATNETDVLMPAPITYAHRLVQRQAEVRKNGTLPWLRPDAKSQVTFQYDDGKIVGIDAVVLSTQHSEEIDQKSLQEAVMEEIIKPILPAEWLTSATKFFINPTGRFVIGGPMGDCGLTGRKIIVDTYGGMARHGGGAFSGKDPSKVDRSAAYAARYVAKNIVAAGLADRCEIQVSYAIGVAEPTSIMVETFGTEKVPSEQLTLLVREFFDLRPYGLIQMLDLLHPIYKETAAYGHFGREHFPWEKTDKAQLLRDAAGLK
- MAT (S-adenosylmethionine synthetase activity) [3]: 2.9 mUI/mg prot

B9: MetK* P137L (protein, UniProt P0A817 2-384, looked up, variant P137L)
S-adenosylmethionine synthase: AKHLFTSESVSEGHPDKIADQISDAVLDAILEQDPKARVACETYVKTGMVLVGGEITTSAWVDIEEITRNTVREIGYVHSDMGFDANSCAVLSAIGKQSPDINQGVDRADPLEQGAGDQGLMFGYATNETDVLMPALITYAHRLVQRQAEVRKNGTLPWLRPDAKSQVTFQYDDGKIVGIDAVVLSTQHSEEIDQKSLQEAVMEEIIKPILPAEWLTSATKFFINPTGRFVIGGPMGDCGLTGRKIIVDTYGGMARHGGGAFSGKDPSKVDRSAAYAARYVAKNIVAAGLADRCEIQVSYAIGVAEPTSIMVETFGTEKVPSEQLTLLVREFFDLRPYGLIQMLDLLHPIYKETAAYGHFGREHFPWEKTDKAQLLRDAAGLK
- MAT (S-adenosylmethionine synthetase activity) [3]: 1.2 mUI/mg prot

B10: WT: wild-type E. coli S-adenosylmethionine synthetase (MetK) (protein, UniProt P0A817 2-384, looked up)
S-adenosylmethionine synthase: AKHLFTSESVSEGHPDKIADQISDAVLDAILEQDPKARVACETYVKTGMVLVGGEITTSAWVDIEEITRNTVREIGYVHSDMGFDANSCAVLSAIGKQSPDINQGVDRADPLEQGAGDQGLMFGYATNETDVLMPAPITYAHRLVQRQAEVRKNGTLPWLRPDAKSQVTFQYDDGKIVGIDAVVLSTQHSEEIDQKSLQEAVMEEIIKPILPAEWLTSATKFFINPTGRFVIGGPMGDCGLTGRKIIVDTYGGMARHGGGAFSGKDPSKVDRSAAYAARYVAKNIVAAGLADRCEIQVSYAIGVAEPTSIMVETFGTEKVPSEQLTLLVREFFDLRPYGLIQMLDLLHPIYKETAAYGHFGREHFPWEKTDKAQLLRDAAGLK
- MAT (S-adenosylmethionine synthetase activity) [3]: 7.5 mUI/mg prot

B11: MetK* H189Y (protein, UniProt P0A817 2-384, looked up, variant H189Y)
S-adenosylmethionine synthase: AKHLFTSESVSEGHPDKIADQISDAVLDAILEQDPKARVACETYVKTGMVLVGGEITTSAWVDIEEITRNTVREIGYVHSDMGFDANSCAVLSAIGKQSPDINQGVDRADPLEQGAGDQGLMFGYATNETDVLMPAPITYAHRLVQRQAEVRKNGTLPWLRPDAKSQVTFQYDDGKIVGIDAVVLSTQYSEEIDQKSLQEAVMEEIIKPILPAEWLTSATKFFINPTGRFVIGGPMGDCGLTGRKIIVDTYGGMARHGGGAFSGKDPSKVDRSAAYAARYVAKNIVAAGLADRCEIQVSYAIGVAEPTSIMVETFGTEKVPSEQLTLLVREFFDLRPYGLIQMLDLLHPIYKETAAYGHFGREHFPWEKTDKAQLLRDAAGLK
- MAT (S-adenosylmethionine synthetase activity) [3]: 0.6 mUI/mg prot

— patent publication US8795990B2, “Recombinant enzyme with altered feedback sensitivity” (Metabolic Explorer, priority 2004, dated 2014)
